Laboratory results as given in publication PMC2063867.

Target: FAK
Experiment: anti-GFP co-IP, anti-myc blot
Settings: reference: WT-paxillin-GFP; sites S273

Chain of paxillin (P49024 whole entry, looked up, stated change not applied): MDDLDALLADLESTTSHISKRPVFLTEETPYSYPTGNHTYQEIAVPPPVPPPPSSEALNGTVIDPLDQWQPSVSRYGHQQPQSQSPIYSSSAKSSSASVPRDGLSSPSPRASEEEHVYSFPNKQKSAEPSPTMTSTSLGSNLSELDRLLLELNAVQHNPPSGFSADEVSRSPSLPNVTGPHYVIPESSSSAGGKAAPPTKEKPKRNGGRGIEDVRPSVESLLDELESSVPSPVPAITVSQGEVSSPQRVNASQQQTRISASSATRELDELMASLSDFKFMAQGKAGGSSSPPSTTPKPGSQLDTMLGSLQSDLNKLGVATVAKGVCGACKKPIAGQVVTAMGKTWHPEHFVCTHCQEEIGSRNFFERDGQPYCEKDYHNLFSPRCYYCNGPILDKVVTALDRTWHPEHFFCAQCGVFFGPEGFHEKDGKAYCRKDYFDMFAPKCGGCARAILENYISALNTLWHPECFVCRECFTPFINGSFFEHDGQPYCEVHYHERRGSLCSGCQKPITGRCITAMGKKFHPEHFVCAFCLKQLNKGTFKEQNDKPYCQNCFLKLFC

Substance: paxillin (from UniProt P49024) S273A-paxillin-GFP
- other: percent increase over reference: 25%
